Data: article PMC3024538

Target: HLA A*0201 α chain with β2m, recombinant, biotinylated
Assay: SPR

- half-life of the pMHCI complex: 6 h
Substance: Melan-A/MART-1 26-35 peptide […]
